We go through three molecules from US9492501B2, “Antiviral agent” (priority 2009, dated 2016).

In series [1] the test system is Microglial cell line. Description: Cell toxicity by MTT method, microglial cell line. The format is cell-based. To be noted: for LD50: microglial line, MTT. On the procedure:
(§1) After culture for 24 hours, the toxicity of the protein is evaluated by measuring the number of living cells by the MTT method (3-(4,5-dimethylthiazol-2-yl)-2,5-diphenyl tetrazolium bromide) as described in Berridge et al. Biotechnology Annual Review, 2005, 11, 127-152.
Similar experiments were carried out on microglial lines. Conditions similar to those used for the 1g5 cells were used, with 5.10^5 cells/mL.
(§2) The PBL cells were treated with 0.24 μg/mL, 0.48 μg/mL, 0.96 μg/mL, 2.4 μg/mL, 4.8 μg/mL, 9.6 μg/mL, or 24 μg/mL of HPBP protein. Untreated cells were tested as a control.
The cell toxicity of St. John's wort protein p27^SJ was measured on cells in culture under the conditions described in Example 15. The p27^SJ was tested at doses of 0 μg/mL (control), 0.01 μg/mL, 0.1 μg/mL, 0.5 μg/mL, 1 μg/mL, 5 μg/mL, 10 μg/mL, 20 μg/mL and 40 μg/mL.

Series [2] relates to HIV-1 (proviral genome NL4.3, strain LAI). Put plainly: HIV-1 replication, ELISA of viral p24 capsid protein in supernatant of infected Jurkat 1G5 cells. The format is cell-based. To be noted: treatment 24 hours. From the text: (§3) Method: a Jurkat CD4+ T lymphocyte cell line (line 1G5) having integrated into its genome a construction comprising a luciferase reporter gene the expression of which is controlled by the HIV-1 promoter (HIV-1 LTR; HIV-LTR Jurkat line) was used. The measurement of luciferase activity from the cell extracts therefore makes it possible to estimate the HIV-1 transcriptional activity.
(§4) The Jurkat HIV-LTR and Jurkat 1G5 lines were transfected by means of the DEAE-dextran technique with the proviral genome NL4.3 (complete HIV-1 genome, strain LAI).
(§5) The HIV-LTR Jurkat and 1G5 Jurkat lines thus infected, are treated 24 hours later with HPBP/PON protein complexes or with purified PON or HPBP proteins at a final concentration of 2 μg/mL of medium (52 nM of protein alone).
(§6) The cells and the cell supernatant are sampled after treatment for 24 hours.
The transcriptional activity is measured by carrying out a luciferase test. The intensity of the HIV-1 replication is measured by means of ELISA assay of the quantity of viral p24 capsid proteins present in the supernatant of the cell cultures of the infected 1G5 lines [Rohr, O., et al. (2000). The Journal of Biological Chemistry 275, 2654-2660]. […]
(§7) The transcriptional activity and inhibition of the replication are measured as described in Example 6.
(ELISA stands for enzyme-linked immunosorbent assay.)

Series [3] deals with HIV-1 promoter (HIV-1 LTR). Put plainly: HIV-1 transcriptional activity, luciferase test in HIV-LTR Jurkat line. To be noted: treatment 24 hours. Format: cell-based.
Source text: as §3, §4, §5, §6
The transcriptional activity is measured by carrying out a luciferase test. The intensity of the HIV-1 replication is measured by means of ELISA assay of the quantity of viral p24 capsid proteins present in the supernatant of the cell cultures of the infected 1G5 lines [Rohr, O., et al. (2000). The Journal of Biological Chemistry 275, 2654-2660].
An untreated negative control as well as a positive control treated with AZT at a final concentration of 10 μM were carried out in parallel. Each experiment is carried out in triplicate.
In parallel, the infected lymphocyte lines obtained were treated with 10 μg of potato DING protein.
Method: a Jurkat CD4+ T lymphocyte cell line (line 1G5) having integrated into its genome a construction comprising a luciferase reporter gene the expression of which is controlled by the HIV-1 promoter (HIV-1 LTR; HIV-LTR Jurkat line) was used. Measurement of luciferase activity from the cell extracts therefore makes it possible to estimate the HIV-1 transcriptional activity. […]
as §7

Series [4] relates to Peripheral Blood Lymphocyte (PBL) cells. Description: Cell toxicity by MTT method, peripheral blood lymphocytes. To be noted: FIG. 11. The format is cell-based. As to the method: as §1
Similar experiments were carried out on primary lymphocytes. Conditions similar to those used for the 1g5 cells were used.
as §2

The subject of series [5] is Cell Line R3HR-1G5 (1g5). Put plainly: Cell toxicity by MTT method, cell line R3HR-1G5 (1g5). The settings on record: 1g5 cells, culture 24 hours, FIG. 10. Format: cell-based. On the procedure: The cell toxicity of the HPBP protein was measured on cells in culture.
5.10^6 cells/mL of the lymphoid line B 1g5 were seeded on plates and treated, or not treated, with different doses of purified HPBP protein: 0.2 μg/mL, 2 μg/mL, 20 μg/mL, or 90 μg/mL.
The cells are cultured for 24 hours at 37° C.
as §1
Briefly, 10 μL of MTT is added to each culture.
The mixture is added quickly over 1 minute, then the cultures are returned to 37° C. for 4 hours.
The culture supernatant is then aspirated, and the crystals formed by the presence of MTT are dissolved with acetic acid.
The optical density (OD) of each of the cultures is measured at 570 nm using a spectrophotometer.
(In general: Tetrazolium dyes change colour on reduction, which living cells bring about.)

Series [6] deals with C/EBPβ protein (Homo sapiens, UniProt P17676). Put plainly: ELISA of in vitro interaction of HPBP and C/EBPβ proteins. Format: binding. The settings on record: C/EBPβ adsorbed on plate, pure HPBP 0.1 nM to 100 mM. As to the method:
(§8) The combination of the Human Phosphate Binding Protein (HPBP) with the C/EBPβ protein is carried out using an ELISA technique.
In ELISA flat-bottom 96-well plates having a high binding affinity for proteins, the C/EBPβ protein is adsorbed on the support and incubated overnight at 4° C.
(§9) The proteins not bound to the plate are removed by washing with a Phosphate Buffered Saline (PBS) buffer containing 10 mg/mL of Bovine Serum Albumin (BSA).
The wells are saturated with a Phosphate Buffered Saline (PBS) buffer solution containing 20 mg/mL of Bovine Serum Albumin (BSA) for 1 hour at room temperature in order to remove the background noise.
After washing with a Phosphate Buffered Saline (PBS) solution containing 10 mg/mL of Bovine Serum Albumin (BSA), different solutions of pure HPBP from 0.1 nM to 100 mM are added to the wells for incubation for 1-3 hours at RT.
The plate is once again washed then incubated with mouse monoclonal anti-HPBP antibodies or rabbit polyclonal anti-HPBP antibodies for incubation for 1-3 hours at RT. […]
(§10) Then after a last washing, the plate is incubated with an HRP substrate (3,3′,5,5′-tetramethylbenzidine: TNB in the presence of hydrogen peroxide H2O2). […] The optical density of the product of the reaction is then measured with a spectrophotometer at 450 nm.

In series [7] the target is T1, GST-Tat protein (Human immunodeficiency virus type 1 group M subtype B, UniProt P04608).
T1 construct: made in house
Description: ELISA of in vitro interaction of HPBP and Tat proteins. Format: binding, HIV-1. To be noted: GST-Tat adsorbed on plate, pure HPBP 0.1 nM to 100 mM. On the procedure:
as §8
In flat-bottom 96-well ELISA plates having a high protein-binding affinity the GST-Tat protein is adsorbed on the support and incubated overnight at 4° C.
as §9
The wells are saturated with a Phosphate Buffered Saline (PBS) buffer solution containing 20 mg/mL of Bovine Serum Albumin (BSA) for 1 hour at room temperature in order to eliminate the background noise. […]
as §10
The inventors used the Enzyme Linked Immunosorbent Assay (ELISA) technique, suited to studying the interaction between the HPBP protein and the HIV-1 (TAT) protein (Engvall and Perlmann, 1971)). The HIV-1 TAT protein was expressed in the form of a fusion with GST in order to obtain the soluble protein and in quantity (approximately 2 mg/mL). […]

Chain of C/EBPβ protein (P17676 whole entry, species assumed): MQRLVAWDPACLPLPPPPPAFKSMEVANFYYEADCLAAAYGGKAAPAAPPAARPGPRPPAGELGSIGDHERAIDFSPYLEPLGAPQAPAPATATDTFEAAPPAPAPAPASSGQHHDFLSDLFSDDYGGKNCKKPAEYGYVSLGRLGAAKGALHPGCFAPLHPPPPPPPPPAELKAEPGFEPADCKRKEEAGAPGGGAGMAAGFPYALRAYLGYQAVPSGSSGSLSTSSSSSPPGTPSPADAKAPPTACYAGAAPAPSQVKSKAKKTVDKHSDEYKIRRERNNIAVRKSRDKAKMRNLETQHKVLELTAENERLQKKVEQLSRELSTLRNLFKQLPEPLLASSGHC
T1 sequence (P04608 whole entry): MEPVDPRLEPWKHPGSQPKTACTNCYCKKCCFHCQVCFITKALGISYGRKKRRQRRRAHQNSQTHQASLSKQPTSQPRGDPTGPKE

B1: p27^SJ: St. John's wort protein, SEQ ID NO: 4, 71% sequence homology with SEQ ID NO: 1, excluded from the invention (protein, listed as Hypericum perforatum)
chain: MADINGGGATLPQALYQTSGVLTAGFAPYIGVGSGNGKAAFLNNDYTKFQAGVTNKNVHWAGSDSKLSATELSTYASAKQPTWGKLIQVPSVGTAVAIPFNKSGTAAVDLSVSELCGVFSGRITDWSGISGSGRTGAITVVYRSESSGTTELFTRFLNAKCAETGTFNISTTFGTSYTGGLPAGAVSAAGSQGVMTALAGADGGTTYMSPDFAAPTLAGLDDATKVARVGKDVATNTAGVSPAAANVSAAINAVPVPASTEKP
B1: in series [1] (conditions of Example 15, FIG. 12), the “cell toxicity (in words)” value is reported as “toxicity very clearly less than that of the HPBP protein”. For the same molecule, the cells dead result in series [1] (dose of 40 μg/mL, FIG. 12) is on record as “approximately 4%”. Also, the LD50 entry in series [1] (FIG. 12) is “greater than 2.5 μg/mL”.

B2: PON-1: human paraoxonase (PON1), co-purified with HPBP from plasma and separated on hydroxyapatite (protein)
chain: AKLIALTLLGMGLALFRNHQSSYQTRLNALREVQPVELPNCNLVKGIETGSEDLEILPNGLAFISSGLKYPGIKSFNPNSPGKILLMDLNEEDPTVLELGITGSKFDVSSFNPHGISTFTDEDNAMYLLVVNHPDAKSTVELFKFQEEEKSLLHLKTIRHKLLPNLNDIVAVGPEHFYGTNDHYFLDPYLQSWEMYLGLAWSYVVYYSPSEVRVVAEGFDFANGINISPDGKYVYIAELLAHKIHVYEKHANWTLTPLKSLDFNTLVDNISVDPETGDLWVGCHPNGMKIFFYDSENPPASEVLRIQNILTEEPKVTQVYAENGTVLQGSTVASVYKGKLLIGTVFHKALYCEL
With B2, in series [2] (2 μg/mL, p24, FIG. 4), the “repressive effect on HIV-1 replication (in words)” value is on record as “no repressive effect”. Besides, the “inhibiting effect on transcriptional activity (in words)” value in series [3] (2 μg/mL, luciferase, FIG. 3) was “does not have such an inhibiting effect”.

B3: HPBP: human phosphate binding protein, plasma DING protein of 38 kDa, SEQ ID NO: 2, purified from human plasma (protein, listed as Homo sapiens)
chain: DINGGGATLPQKLYLTPDVLTAGFAPYIGVGSGKGKIAFLENKYNQFGTDTTKNVHWAGSDSKLTATELATYAADKEPGWGKLIQVPSVATSVAIPFRKAGANAVDLSVKELCGVFSGRIADWSGITGAGRSGPIQVVYRAESSGTTELFTRFLNAKCTTQPGTFAVTTVFANSYSLGLSPLAGAVAAIGSVGVMAADNDVTTAQGRITYISPDFAAPTLAGLDDATKVARTGKGSSSGGGAEGKSPAAANVSAAISVVPLPAAADRGDPNVWTPVFGAVTGGGVVAYPDSGYPILGFTDLIFSECYANATQTGQVRNFFTKHYGTSANDNAAIQANAFVPLPSNWKAAVRASYLTASNALSIGDSAVCGGKGRPE
With B3, the figures for the LD50 result in series [4] and in series [1] (FIG. 12) were “approximately 5 μg/mL” and “approximately 2.5 μg/mL”, respectively. In addition, in series [2] (2 μg/mL (52 nM), p24 in supernatant, CD4+ T lymphocytes (Jurkat 1G5)), the “inhibition of HIV-1 replication” value stood at 89%. The molecule also showed a transcriptional activity repressed in series [3] (2 μg/mL (52 nM), luciferase, FIG. 3) of 80%. Moreover, in series [3] (HPBP 2 μg/mL, FIG. 5 (luciferase activity)), the “inhibits the viral replication by a factor (FIG. 5)” value was over 6. Further, the “lethal dose 50% (LD50, dose killing half of the cells)” value in series [5] is recorded as “approximately 20 μg/mL”. Also, in series [6], the “interaction of HPBP protein and C/EBPβ protein in vitro” value is on record as “capable of interacting in vitro”. In series [7], the “interaction of HPBP protein and Tat protein in vitro” value is recorded as “capable of interacting in vitro”.
